Measured values as given in patent US20250115669A1, “FGFR1/KLB Targeting Agonistic Antigen-Binding Proteins and Conjugates Thereof with GLP-1R Agonistic Peptides” (SANOFI, priority 2020, published 2025).

T1: human beta-Klotho (Homo sapiens, UniProt Q86Z14)
T1 sequence (Q86Z14 1-1044): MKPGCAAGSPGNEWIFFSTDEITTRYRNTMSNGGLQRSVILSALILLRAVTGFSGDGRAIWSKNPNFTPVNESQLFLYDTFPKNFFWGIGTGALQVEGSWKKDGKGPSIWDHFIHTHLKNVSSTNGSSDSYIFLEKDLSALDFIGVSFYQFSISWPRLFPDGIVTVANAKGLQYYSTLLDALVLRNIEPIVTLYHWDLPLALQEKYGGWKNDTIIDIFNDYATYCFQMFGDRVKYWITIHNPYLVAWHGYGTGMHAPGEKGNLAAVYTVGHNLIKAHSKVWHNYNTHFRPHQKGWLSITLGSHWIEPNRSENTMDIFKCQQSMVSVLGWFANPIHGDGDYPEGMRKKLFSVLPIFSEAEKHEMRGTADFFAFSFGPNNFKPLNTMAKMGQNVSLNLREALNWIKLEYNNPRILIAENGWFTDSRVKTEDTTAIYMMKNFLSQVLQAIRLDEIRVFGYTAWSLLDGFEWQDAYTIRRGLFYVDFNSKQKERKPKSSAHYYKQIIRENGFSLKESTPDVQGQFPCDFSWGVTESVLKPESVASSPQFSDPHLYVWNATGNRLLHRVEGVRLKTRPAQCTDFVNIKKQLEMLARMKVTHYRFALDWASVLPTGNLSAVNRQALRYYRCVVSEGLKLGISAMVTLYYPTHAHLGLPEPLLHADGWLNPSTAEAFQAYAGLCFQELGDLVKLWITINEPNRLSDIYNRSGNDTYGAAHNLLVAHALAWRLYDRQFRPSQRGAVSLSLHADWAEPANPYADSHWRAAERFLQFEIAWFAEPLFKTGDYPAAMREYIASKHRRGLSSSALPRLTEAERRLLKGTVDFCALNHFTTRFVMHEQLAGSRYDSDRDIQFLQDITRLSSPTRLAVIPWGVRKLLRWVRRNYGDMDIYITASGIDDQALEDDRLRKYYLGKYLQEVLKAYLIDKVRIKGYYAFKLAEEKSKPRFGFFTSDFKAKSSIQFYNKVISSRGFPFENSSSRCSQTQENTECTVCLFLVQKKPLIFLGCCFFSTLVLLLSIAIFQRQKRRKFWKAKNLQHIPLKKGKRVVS


Each molecule was assayed against T1, human beta-Klotho (assay: SPR off-rate screening of antibody mutants (human beta-Klotho captured by anti-His antibody)). Details: mean, n=3.
Format: binding
How it was run: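 Using beta-Klotho bound through its His tag to an anti-His capture surface, we measure dissociation of 50 nmol/L antibody analytes over 300 sec following 240 sec of association; surfaces are regenerated between cycles and kd is fitted single-exponentially.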

Row | Molecule | koff human KLB
1 | Ab0332: IgG4 PE; 16H7 VL (N25S, D49S, D50E, D91E, N93A); 16H7 VH (M34V, I83T, D109E) (antibody) VH: QVTLKESGPVLVKPTETLTLTCTVSGFSLNNARVGVSWIRQPPGKALEWLAHIFSNDEKSYSTSLKSRLTISKDTSKSQVVLTMTNMDPVDTATYYCARSVVTGGYYYEGMDVWGQGTTVTVSS light: SYVLTQPPSVSVAPGQTARITCGGSNIGSESVHWYQQKPGQAPVLVVYSESDRPSGIPERFSGSNSGNTATLTISRVEAGDEADYYCQVWEGASDHVVFGGGTKLTVLGQPKANPTVTLFPPSSEELQANKATLVCLISDFYPGAVTVAWKADGSPVKAGVETTKPSKQSNNKYAASSYLSLTPEQWKSHRSYSCQVTHEGSTVEKTVAPTECS | 0.00143 s⁻¹
2 | Ab0333: IgG4 PE; 16H7 VL (N25S, D49S, D50Y, D91A, N93S); 16H7 VH (M34V, I83T, D109E) (antibody) VH: QVTLKESGPVLVKPTETLTLTCTVSGFSLNNARVGVSWIRQPPGKALEWLAHIFSNDEKSYSTSLKSRLTISKDTSKSQVVLTMTNMDPVDTATYYCARSVVTGGYYYEGMDVWGQGTTVTVSS light: SYVLTQPPSVSVAPGQTARITCGGSNIGSESVHWYQQKPGQAPVLVVYSYSDRPSGIPERFSGSNSGNTATLTISRVEAGDEADYYCQVWAGSSDHVVFGGGTKLTVLGQPKANPTVTLFPPSSEELQANKATLVCLISDFYPGAVTVAWKADGSPVKAGVETTKPSKQSNNKYAASSYLSLTPEQWKSHRSYSCQVTHEGSTVEKTVAPTECS | 0.0002507 s⁻¹
3 | Ab0334: IgG4 PE; 16H7 VL (N25S, D49S, D50A, D91A, N93S); 16H7 VH (M34V, I83T, D109E) (antibody) VH: QVTLKESGPVLVKPTETLTLTCTVSGFSLNNARVGVSWIRQPPGKALEWLAHIFSNDEKSYSTSLKSRLTISKDTSKSQVVLTMTNMDPVDTATYYCARSVVTGGYYYEGMDVWGQGTTVTVSS light: SYVLTQPPSVSVAPGQTARITCGGSNIGSESVHWYQQKPGQAPVLVVYSASDRPSGIPERFSGSNSGNTATLTISRVEAGDEADYYCQVWAGSSDHVVFGGGTKLTVLGQPKANPTVTLFPPSSEELQANKATLVCLISDFYPGAVTVAWKADGSPVKAGVETTKPSKQSNNKYAASSYLSLTPEQWKSHRSYSCQVTHEGSTVEKTVAPTECS | invalid fit
4 | Ab0336: IgG4 PE; 16H7 VL (N25S, D49S, D50H, D91A, N93S); 16H7 VH (M34V, I83T, D109E) (antibody) VH: QVTLKESGPVLVKPTETLTLTCTVSGFSLNNARVGVSWIRQPPGKALEWLAHIFSNDEKSYSTSLKSRLTISKDTSKSQVVLTMTNMDPVDTATYYCARSVVTGGYYYEGMDVWGQGTTVTVSS light: SYVLTQPPSVSVAPGQTARITCGGSNIGSESVHWYQQKPGQAPVLVVYSHSDRPSGIPERFSGSNSGNTATLTISRVEAGDEADYYCQVWAGSSDHVVFGGGTKLTVLGQPKANPTVTLFPPSSEELQANKATLVCLISDFYPGAVTVAWKADGSPVKAGVETTKPSKQSNNKYAASSYLSLTPEQWKSHRSYSCQVTHEGSTVEKTVAPTECS | invalid fit
5 | Ab0337: IgG4 PE; 16H7 VL (N25S, D49S, D50H, D91E, N93E); 16H7 VH (M34V, I83T, D109E) (antibody) VH: QVTLKESGPVLVKPTETLTLTCTVSGFSLNNARVGVSWIRQPPGKALEWLAHIFSNDEKSYSTSLKSRLTISKDTSKSQVVLTMTNMDPVDTATYYCARSVVTGGYYYEGMDVWGQGTTVTVSS light: SYVLTQPPSVSVAPGQTARITCGGSNIGSESVHWYQQKPGQAPVLVVYSHSDRPSGIPERFSGSNSGNTATLTISRVEAGDEADYYCQVWEGESDHVVFGGGTKLTVLGQPKANPTVTLFPPSSEELQANKATLVCLISDFYPGAVTVAWKADGSPVKAGVETTKPSKQSNNKYAASSYLSLTPEQWKSHRSYSCQVTHEGSTVEKTVAPTECS | 0.0005296 s⁻¹
6 | Ab0338: IgG4 PE; 16H7 VL (N25S, D49S, D50S, D91A, N93S); 16H7 VH (M34V, I83T, D109E) (antibody) VH: QVTLKESGPVLVKPTETLTLTCTVSGFSLNNARVGVSWIRQPPGKALEWLAHIFSNDEKSYSTSLKSRLTISKDTSKSQVVLTMTNMDPVDTATYYCARSVVTGGYYYEGMDVWGQGTTVTVSS light: SYVLTQPPSVSVAPGQTARITCGGSNIGSESVHWYQQKPGQAPVLVVYSSSDRPSGIPERFSGSNSGNTATLTISRVEAGDEADYYCQVWAGSSDHVVFGGGTKLTVLGQPKANPTVTLFPPSSEELQANKATLVCLISDFYPGAVTVAWKADGSPVKAGVETTKPSKQSNNKYAASSYLSLTPEQWKSHRSYSCQVTHEGSTVEKTVAPTECS | 0.0004292 s⁻¹
7 | Ab0339: IgG4 PE; 16H7 VL (N25S, D49A, D50E, D91A, N93S); 16H7 VH (M34V, I83T, D109E) (antibody) VH: QVTLKESGPVLVKPTETLTLTCTVSGFSLNNARVGVSWIRQPPGKALEWLAHIFSNDEKSYSTSLKSRLTISKDTSKSQVVLTMTNMDPVDTATYYCARSVVTGGYYYEGMDVWGQGTTVTVSS light: SYVLTQPPSVSVAPGQTARITCGGSNIGSESVHWYQQKPGQAPVLVVYAESDRPSGIPERFSGSNSGNTATLTISRVEAGDEADYYCQVWAGSSDHVVFGGGTKLTVLGQPKANPTVTLFPPSSEELQANKATLVCLISDFYPGAVTVAWKADGSPVKAGVETTKPSKQSNNKYAASSYLSLTPEQWKSHRSYSCQVTHEGSTVEKTVAPTECS | invalid fit
8 | Ab0340: IgG4 PE; 16H7 VL (N25S, D49A, D50E, D91E, N93S); 16H7 VH (M34V, I83T, D109E) (antibody) VH: QVTLKESGPVLVKPTETLTLTCTVSGFSLNNARVGVSWIRQPPGKALEWLAHIFSNDEKSYSTSLKSRLTISKDTSKSQVVLTMTNMDPVDTATYYCARSVVTGGYYYEGMDVWGQGTTVTVSS light: SYVLTQPPSVSVAPGQTARITCGGSNIGSESVHWYQQKPGQAPVLVVYAESDRPSGIPERFSGSNSGNTATLTISRVEAGDEADYYCQVWEGSSDHVVFGGGTKLTVLGQPKANPTVTLFPPSSEELQANKATLVCLISDFYPGAVTVAWKADGSPVKAGVETTKPSKQSNNKYAASSYLSLTPEQWKSHRSYSCQVTHEGSTVEKTVAPTECS | 0.00176 s⁻¹
9 | Ab0341: IgG4 PE; 16H7 VL (N25S, D49A, D50Y, D91A, N93S); 16H7 VH (M34V, I83T, D109E) (antibody) VH: QVTLKESGPVLVKPTETLTLTCTVSGFSLNNARVGVSWIRQPPGKALEWLAHIFSNDEKSYSTSLKSRLTISKDTSKSQVVLTMTNMDPVDTATYYCARSVVTGGYYYEGMDVWGQGTTVTVSS light: SYVLTQPPSVSVAPGQTARITCGGSNIGSESVHWYQQKPGQAPVLVVYAYSDRPSGIPERFSGSNSGNTATLTISRVEAGDEADYYCQVWAGSSDHVVFGGGTKLTVLGQPKANPTVTLFPPSSEELQANKATLVCLISDFYPGAVTVAWKADGSPVKAGVETTKPSKQSNNKYAASSYLSLTPEQWKSHRSYSCQVTHEGSTVEKTVAPTECS | invalid fit
10 | Ab0342: IgG4 PE; 16H7 VL (N25S, D49A, D50A, D91A, N93E); 16H7 VH (M34V, I83T, D109E) (antibody) VH: QVTLKESGPVLVKPTETLTLTCTVSGFSLNNARVGVSWIRQPPGKALEWLAHIFSNDEKSYSTSLKSRLTISKDTSKSQVVLTMTNMDPVDTATYYCARSVVTGGYYYEGMDVWGQGTTVTVSS light: SYVLTQPPSVSVAPGQTARITCGGSNIGSESVHWYQQKPGQAPVLVVYAASDRPSGIPERFSGSNSGNTATLTISRVEAGDEADYYCQVWAGESDHVVFGGGTKLTVLGQPKANPTVTLFPPSSEELQANKATLVCLISDFYPGAVTVAWKADGSPVKAGVETTKPSKQSNNKYAASSYLSLTPEQWKSHRSYSCQVTHEGSTVEKTVAPTECS | invalid fit
11 | Ab0343: IgG4 PE; 16H7 VL (N25S, D49A, D50A, D91A, N93S); 16H7 VH (M34V, I83T, D109E) (antibody) VH: QVTLKESGPVLVKPTETLTLTCTVSGFSLNNARVGVSWIRQPPGKALEWLAHIFSNDEKSYSTSLKSRLTISKDTSKSQVVLTMTNMDPVDTATYYCARSVVTGGYYYEGMDVWGQGTTVTVSS light: SYVLTQPPSVSVAPGQTARITCGGSNIGSESVHWYQQKPGQAPVLVVYAASDRPSGIPERFSGSNSGNTATLTISRVEAGDEADYYCQVWAGSSDHVVFGGGTKLTVLGQPKANPTVTLFPPSSEELQANKATLVCLISDFYPGAVTVAWKADGSPVKAGVETTKPSKQSNNKYAASSYLSLTPEQWKSHRSYSCQVTHEGSTVEKTVAPTECS | invalid fit
